Laboratory results taken from PMC5992219, “HuR regulates telomerase activity through TERC methylation”.

How the values were obtained:
[1] = test system: HuR (HeLa lysate) (human (HeLa)); assay: pull-down; conditions: biotin-UTP, ITC: 10 mM Tris pH 8.0, 100 mM NaCl, 25 C, UV-crosslinking EMSA: 50 mM Tris pH 7.0, 150 mM NaCl, 0.25 mg/ml tRNA, 0.025 mg/ml BSA, pull-down: 1 ug RNA …
[2] = biological target: HuR (ITC, SUMO tag removed) (UniProt Q15717 1-326); assay: ITC; ITC: 10 mM Tris pH 8.0, 100 mM NaCl, 25 C; UV-crosslinking EMSA: 50 mM Tris pH 7.0, 150 mM NaCl, 0.25 mg/ml tRNA, 0.025 mg/ml BSA, 25 C; pull-down: 1 ug RNA, 100 ug cytoplasmic extract, room temperature, 30 min; conditions: protein: recombinant; tags: N-terminal 6xHis-SUMO removed by Ulp1
Chain of HuR (ITC, SUMO tag removed) (Q15717 whole entry): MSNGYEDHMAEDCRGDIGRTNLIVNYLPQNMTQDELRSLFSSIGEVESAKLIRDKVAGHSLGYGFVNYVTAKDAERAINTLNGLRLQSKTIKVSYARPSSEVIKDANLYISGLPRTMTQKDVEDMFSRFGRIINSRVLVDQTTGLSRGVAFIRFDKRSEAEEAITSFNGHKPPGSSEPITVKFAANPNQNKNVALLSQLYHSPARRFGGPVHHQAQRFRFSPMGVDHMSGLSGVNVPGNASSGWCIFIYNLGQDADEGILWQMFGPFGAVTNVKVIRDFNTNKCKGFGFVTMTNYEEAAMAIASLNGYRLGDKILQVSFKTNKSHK

Molecule	binding signal (% reduction vs WT) [1]	Kd [2] [nM]	further results
TERC U100A	70.4		
TERC U40A	70.7		
GUUUUUCUCG (ssRNA) [TERC 98-107 oligo (GUUUUUC motif)]		~70.4	
CUAGACUAGGACUC (ssRNA) [ITC negative control RNA]			binding result [2]: no binding
AUUUUUUGUCU (ssRNA) [TERC 37-47 oligo (UUUUUU motif)]		~24.3	
